Results from US20210063414A1, “METHODS FOR PREVENTING AND/OR TREATING BONE LOSS CONDITIONS BY MODULATING IRISIN” (Dana-Farber Cancer Institute, Inc., priority 2018, published 2021).

Columns and labels:
[1] = molecular target: T1, MLO-Y4 cell surface proteins (Mus musculus, UniProt P59999); assay: Crosslinking/co-immunoprecipitation/mass spectrometry (TMT quantitative proteomics) to identify irisin receptors; type: binding; settings: co-precipitated protein Atpc4 (ARPC4_MOUSE)
T1 construct: endogenous in cells; host or cells: MLO-Y4
In short: (§1)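 Relative protein abundance came from 6-plex TMT MS3 quantitation on an Orbitrap Fusion Lumos, after in-gel trypsin digestion of Coomassie-stained SDS-PAGE lanes. Input was a Ni-NTA pulldown (250 mM imidazole elution) of lysates from murine MLO-Y4 cells. These cells were treated on ice with His-tagged irisin or adipsin (10 nM, 20 min) in serum-free medium, then crosslinked with 1.5 mM DTSSP for 30 min.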

[2] = molecular target: T2, MLO-Y4 cell surface proteins (Mus musculus, UniProt Q8VCI5); assay: as above; type: binding; settings: co-precipitated protein Pex19 (PEX19_MOUSE)
T2 construct: endogenous in cells; host or cells: MLO-Y4
T2 sequence (Q8VCI5 1-299): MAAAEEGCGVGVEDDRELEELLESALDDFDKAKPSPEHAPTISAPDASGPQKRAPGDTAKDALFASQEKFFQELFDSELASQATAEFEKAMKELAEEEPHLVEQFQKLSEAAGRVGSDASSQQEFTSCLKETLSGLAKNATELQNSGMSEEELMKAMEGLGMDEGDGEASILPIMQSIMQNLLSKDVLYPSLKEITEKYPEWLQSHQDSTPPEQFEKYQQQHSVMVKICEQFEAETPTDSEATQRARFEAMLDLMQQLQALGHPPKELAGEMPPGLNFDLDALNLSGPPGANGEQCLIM
In short: as §1

B1: irisin: secreted cleaved form of FNDC5; recombinant human/mouse irisin with C-terminal his tag produced in HEK293 cells (protein)
chain: DSPSAPVNVTVRHLKANSAVVSWDVLEDEVVIGFAISQQKKDVRMLRFIQEVNTTTRSCALWDLEEDTEYIVHVQAISIQGQSPASEPVLFKTPREAEKMASKNKDEVTMKE
modifications: left off: small tags and cut ends
notes: secreted cleaved form of FNDC5; recombinant human/mouse irisin with C-terminal his tag produced in HEK293 cells
- TMT signal-to-noise ratio [1]: 74.075
- irisin/adipsin TMT signal-to-noise ratio [1]: 0.536
- TMT signal-to-noise ratio [2]: 23.3696
- irisin/adipsin TMT signal-to-noise ratio [2]: 0.386
